The test addresses T1, Zap70 D461N-tagged (Myc- or hemagglutinin-tagged, kinase-inactive Zap70) (human, UniProt P43403 1-619, D461N).
T1 sequence (looked up): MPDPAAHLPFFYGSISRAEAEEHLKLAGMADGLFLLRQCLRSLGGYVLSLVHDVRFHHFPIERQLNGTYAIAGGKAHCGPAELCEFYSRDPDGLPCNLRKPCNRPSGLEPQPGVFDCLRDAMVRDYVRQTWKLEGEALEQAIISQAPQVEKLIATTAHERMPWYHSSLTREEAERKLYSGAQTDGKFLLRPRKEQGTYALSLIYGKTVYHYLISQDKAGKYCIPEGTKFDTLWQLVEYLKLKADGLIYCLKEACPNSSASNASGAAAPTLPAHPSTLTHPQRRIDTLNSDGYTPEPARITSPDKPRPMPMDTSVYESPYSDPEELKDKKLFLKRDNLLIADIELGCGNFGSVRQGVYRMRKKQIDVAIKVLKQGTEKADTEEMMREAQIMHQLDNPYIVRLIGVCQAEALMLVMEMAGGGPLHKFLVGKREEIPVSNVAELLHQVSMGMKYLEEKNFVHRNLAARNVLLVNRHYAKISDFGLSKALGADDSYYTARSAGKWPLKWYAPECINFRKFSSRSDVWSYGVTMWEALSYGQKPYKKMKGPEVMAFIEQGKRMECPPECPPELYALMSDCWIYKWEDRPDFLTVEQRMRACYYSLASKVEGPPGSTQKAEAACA
As to the kind of experiment: ELISA. For orientation: An ELISA detects its analyte on a solid surface through an enzyme-linked reagent.

The record followed here is PMC5490839 (Nature immunology, 2016).

Where no end group is shown, it is not given here.

Regarding GGAGQDGVRQSRASDKQTLLPNDQLYQPLKDREDDQYSHLQGNQLRRN (domain or fragment, also: ITAM phosphorylated by Lck, sites not given here, GST fusion), the binding result is given as “binds”.
